Experimental data taken from the supplement of paper PMC10065799, “High-throughput profiling of sequence recognition by tyrosine kinases and SH2 domains using bacterial peptide display” (eLife, 2023).

How the values were obtained:
AncSZ = test: phosphorylation enrichment, bacterial display (enrichment ratio); higher = better substrate or ligand; peptides without Tyr show the background
EPHB1 = EPHB1 (UniProt P54762); test: as above
EPHB2 = EPHB2 (UniProt P29323); test: as above
FGFR1 = FGFR1 (UniProt P11362); test: as above
Chain of FGFR1 (P11362 whole entry, looked up): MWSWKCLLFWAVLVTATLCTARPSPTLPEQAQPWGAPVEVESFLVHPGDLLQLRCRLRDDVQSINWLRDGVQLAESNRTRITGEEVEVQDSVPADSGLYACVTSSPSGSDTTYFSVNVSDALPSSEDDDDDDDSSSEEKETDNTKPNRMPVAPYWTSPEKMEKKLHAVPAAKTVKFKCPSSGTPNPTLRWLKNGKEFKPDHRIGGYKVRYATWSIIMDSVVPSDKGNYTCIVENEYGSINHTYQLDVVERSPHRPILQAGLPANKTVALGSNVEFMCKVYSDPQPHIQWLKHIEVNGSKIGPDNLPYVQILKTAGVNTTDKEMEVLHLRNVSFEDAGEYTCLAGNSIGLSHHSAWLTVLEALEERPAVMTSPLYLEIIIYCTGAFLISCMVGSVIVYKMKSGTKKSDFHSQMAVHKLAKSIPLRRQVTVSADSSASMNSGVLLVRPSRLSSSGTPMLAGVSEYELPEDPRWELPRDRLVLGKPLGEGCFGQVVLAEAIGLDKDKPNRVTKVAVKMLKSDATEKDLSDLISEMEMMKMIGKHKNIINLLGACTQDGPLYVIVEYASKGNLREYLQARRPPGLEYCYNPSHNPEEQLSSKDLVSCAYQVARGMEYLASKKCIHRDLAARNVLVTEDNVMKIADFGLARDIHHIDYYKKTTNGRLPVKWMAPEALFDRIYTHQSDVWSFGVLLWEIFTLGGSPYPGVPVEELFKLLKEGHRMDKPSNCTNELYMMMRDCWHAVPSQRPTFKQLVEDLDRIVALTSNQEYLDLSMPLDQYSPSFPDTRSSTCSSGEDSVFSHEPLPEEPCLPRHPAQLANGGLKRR

FGFR3 = FGFR3 (UniProt P22607); test: as above
Chain of FGFR3 (P22607 whole entry, looked up): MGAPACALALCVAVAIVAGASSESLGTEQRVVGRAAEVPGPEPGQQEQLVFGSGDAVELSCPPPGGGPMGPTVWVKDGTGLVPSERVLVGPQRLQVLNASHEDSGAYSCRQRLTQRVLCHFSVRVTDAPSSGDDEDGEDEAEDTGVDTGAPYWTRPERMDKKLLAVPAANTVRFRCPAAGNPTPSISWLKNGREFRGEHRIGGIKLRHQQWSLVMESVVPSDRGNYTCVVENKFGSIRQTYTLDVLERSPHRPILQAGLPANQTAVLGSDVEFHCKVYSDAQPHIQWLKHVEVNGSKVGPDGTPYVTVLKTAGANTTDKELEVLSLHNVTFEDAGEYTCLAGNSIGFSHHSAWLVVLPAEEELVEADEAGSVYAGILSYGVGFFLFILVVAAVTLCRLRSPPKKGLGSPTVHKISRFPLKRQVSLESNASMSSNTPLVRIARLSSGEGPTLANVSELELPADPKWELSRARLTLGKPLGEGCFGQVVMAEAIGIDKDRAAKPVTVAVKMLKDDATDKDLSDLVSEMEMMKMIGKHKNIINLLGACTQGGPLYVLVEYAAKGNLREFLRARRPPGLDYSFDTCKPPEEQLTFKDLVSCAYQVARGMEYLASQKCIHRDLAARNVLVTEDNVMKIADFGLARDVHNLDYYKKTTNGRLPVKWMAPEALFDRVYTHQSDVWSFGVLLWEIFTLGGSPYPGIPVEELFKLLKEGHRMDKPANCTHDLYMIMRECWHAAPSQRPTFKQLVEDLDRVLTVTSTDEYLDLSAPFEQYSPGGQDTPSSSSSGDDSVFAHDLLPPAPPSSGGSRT

Fer (mouse) = test: as above
Fes = Fes (UniProt P07332); test: as above
Fyn = Fyn (UniProt P06241); test: as above
Chain of Fyn (P06241 whole entry, looked up): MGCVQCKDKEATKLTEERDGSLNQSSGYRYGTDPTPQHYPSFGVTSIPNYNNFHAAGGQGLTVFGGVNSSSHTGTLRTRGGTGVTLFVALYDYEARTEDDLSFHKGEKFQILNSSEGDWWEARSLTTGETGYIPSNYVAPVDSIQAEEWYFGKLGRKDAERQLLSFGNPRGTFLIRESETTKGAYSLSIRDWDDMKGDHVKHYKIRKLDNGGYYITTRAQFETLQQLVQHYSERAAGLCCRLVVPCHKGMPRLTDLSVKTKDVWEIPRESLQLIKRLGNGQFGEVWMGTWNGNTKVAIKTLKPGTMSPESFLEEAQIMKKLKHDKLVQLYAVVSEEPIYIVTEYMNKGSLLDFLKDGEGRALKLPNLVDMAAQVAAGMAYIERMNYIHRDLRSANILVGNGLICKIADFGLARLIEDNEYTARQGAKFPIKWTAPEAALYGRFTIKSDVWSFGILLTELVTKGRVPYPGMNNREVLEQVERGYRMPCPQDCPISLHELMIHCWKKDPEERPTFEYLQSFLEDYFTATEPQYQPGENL

Hck = Hck (UniProt P08631); test: as above
Chain of Hck (P08631 whole entry, looked up): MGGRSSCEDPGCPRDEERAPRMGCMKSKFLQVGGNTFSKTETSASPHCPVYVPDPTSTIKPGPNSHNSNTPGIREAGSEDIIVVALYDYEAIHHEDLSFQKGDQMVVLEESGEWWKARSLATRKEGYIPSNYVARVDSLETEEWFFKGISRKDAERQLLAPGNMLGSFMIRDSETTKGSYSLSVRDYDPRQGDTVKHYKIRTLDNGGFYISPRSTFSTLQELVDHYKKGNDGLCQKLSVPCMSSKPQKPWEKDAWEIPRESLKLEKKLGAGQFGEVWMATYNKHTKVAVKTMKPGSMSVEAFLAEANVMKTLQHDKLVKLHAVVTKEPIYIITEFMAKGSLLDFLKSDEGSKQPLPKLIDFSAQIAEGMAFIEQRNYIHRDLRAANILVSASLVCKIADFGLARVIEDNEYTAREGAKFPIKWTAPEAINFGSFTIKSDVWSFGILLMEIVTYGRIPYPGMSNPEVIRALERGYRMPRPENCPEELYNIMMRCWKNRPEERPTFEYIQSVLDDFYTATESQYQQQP

Jak2 = Jak2 (UniProt O60674); test: as above
MERTK = MERTK (UniProt Q12866); test: as above
Chain of MERTK (Q12866 whole entry, looked up): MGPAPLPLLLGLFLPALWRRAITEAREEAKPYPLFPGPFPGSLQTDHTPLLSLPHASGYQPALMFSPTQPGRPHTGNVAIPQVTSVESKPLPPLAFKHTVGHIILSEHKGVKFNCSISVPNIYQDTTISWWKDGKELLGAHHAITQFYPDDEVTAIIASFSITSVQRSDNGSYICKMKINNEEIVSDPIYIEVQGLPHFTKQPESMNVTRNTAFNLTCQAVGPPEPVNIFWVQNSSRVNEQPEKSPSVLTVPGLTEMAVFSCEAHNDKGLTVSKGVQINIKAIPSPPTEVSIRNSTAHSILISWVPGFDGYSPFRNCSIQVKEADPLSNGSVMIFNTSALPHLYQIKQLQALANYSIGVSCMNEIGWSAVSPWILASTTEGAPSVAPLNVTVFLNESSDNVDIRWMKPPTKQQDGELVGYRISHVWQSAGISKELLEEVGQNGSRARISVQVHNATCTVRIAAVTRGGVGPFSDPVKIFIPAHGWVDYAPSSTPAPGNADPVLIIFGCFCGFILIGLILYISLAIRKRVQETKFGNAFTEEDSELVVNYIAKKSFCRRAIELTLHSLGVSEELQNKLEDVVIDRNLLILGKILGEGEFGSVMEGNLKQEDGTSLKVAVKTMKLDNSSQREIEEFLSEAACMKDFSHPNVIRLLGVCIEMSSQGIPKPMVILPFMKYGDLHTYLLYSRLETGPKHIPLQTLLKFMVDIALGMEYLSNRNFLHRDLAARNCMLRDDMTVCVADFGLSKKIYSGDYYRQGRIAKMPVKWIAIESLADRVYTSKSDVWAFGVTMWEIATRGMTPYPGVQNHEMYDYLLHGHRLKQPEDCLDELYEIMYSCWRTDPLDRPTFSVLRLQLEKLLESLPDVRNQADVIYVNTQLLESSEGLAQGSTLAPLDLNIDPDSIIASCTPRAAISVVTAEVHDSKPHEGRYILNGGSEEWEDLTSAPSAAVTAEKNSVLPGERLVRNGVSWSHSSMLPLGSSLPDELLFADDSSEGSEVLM

c-Abl (mouse) = test: as above
c-Src = test: as above
Grb2 SH2 = Grb2 SH2 (UniProt P62993); test: SH2 binding enrichment of the phosphorylated peptide, bacterial display (enrichment ratio); higher = better substrate or ligand; peptides without Tyr show the background
Chain of Grb2 SH2 (P62993 whole entry, looked up): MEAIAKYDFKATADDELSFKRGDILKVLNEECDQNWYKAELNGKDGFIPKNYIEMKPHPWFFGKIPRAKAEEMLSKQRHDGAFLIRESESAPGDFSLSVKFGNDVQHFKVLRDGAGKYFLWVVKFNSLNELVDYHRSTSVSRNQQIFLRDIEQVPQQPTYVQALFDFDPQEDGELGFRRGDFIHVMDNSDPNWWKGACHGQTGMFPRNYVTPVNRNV

SHP2-C SH2 = test: as above
c-Src SH2 = test: as above
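Throughout, for SH2 binding enrichment of the phosphorylated peptide, bacterial display: peptide library displayed on the E. coli surface as eCPX fusions, selected cells deep-sequenced, score is each peptide's frequency after selection divided by its frequency in the input.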
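Throughout, for phosphorylation enrichment, bacterial display: 11-residue human phosphosite peptides and single-mutation variants displayed on the E. coli surface, counted by deep sequencing, each peptide's frequency after selection divided by its frequency in the unselected input library; frequency after pTyr selection over input frequency; kinase dosed for 20-30% of maximal phosphorylation in three min.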

Chain of EPHB2 (P29323 whole entry, looked up): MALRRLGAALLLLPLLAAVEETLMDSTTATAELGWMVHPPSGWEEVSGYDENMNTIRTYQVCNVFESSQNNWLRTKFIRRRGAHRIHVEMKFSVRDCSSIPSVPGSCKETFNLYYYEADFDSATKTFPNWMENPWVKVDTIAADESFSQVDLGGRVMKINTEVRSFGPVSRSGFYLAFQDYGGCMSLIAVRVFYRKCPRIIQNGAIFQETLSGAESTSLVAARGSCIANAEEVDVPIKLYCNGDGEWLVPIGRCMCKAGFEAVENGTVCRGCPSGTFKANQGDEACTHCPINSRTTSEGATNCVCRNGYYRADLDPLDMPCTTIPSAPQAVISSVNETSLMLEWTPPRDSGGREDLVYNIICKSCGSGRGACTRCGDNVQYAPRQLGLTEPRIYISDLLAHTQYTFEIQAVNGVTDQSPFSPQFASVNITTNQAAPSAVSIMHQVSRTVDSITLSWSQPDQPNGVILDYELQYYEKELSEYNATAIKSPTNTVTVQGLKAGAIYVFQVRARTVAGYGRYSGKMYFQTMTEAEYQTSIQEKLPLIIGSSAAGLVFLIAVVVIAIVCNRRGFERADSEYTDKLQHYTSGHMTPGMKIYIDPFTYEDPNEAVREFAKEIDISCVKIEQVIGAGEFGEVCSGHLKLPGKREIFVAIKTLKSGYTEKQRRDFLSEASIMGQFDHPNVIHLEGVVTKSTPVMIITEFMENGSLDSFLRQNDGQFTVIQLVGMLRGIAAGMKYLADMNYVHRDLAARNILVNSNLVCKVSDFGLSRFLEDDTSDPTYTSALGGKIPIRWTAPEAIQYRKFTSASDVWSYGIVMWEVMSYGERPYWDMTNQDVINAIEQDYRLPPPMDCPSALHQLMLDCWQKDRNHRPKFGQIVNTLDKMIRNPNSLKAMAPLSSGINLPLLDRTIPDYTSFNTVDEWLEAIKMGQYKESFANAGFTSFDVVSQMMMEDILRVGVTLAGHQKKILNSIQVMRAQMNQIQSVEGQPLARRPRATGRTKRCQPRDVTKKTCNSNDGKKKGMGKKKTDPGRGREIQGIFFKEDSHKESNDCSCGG

Row | Sequence | phosphorylation enrichment (AncSZ) | phosphorylation enrichment (EPHB1) | phosphorylation enrichment (EPHB2) | phosphorylation enrichment (FGFR1) | phosphorylation enrichment (FGFR3) | phosphorylation enrichment (Fer (mouse)) | phosphorylation enrichment (Fes) | phosphorylation enrichment (Fyn) | phosphorylation enrichment (Hck) | phosphorylation enrichment (Jak2) | phosphorylation enrichment (MERTK) | phosphorylation enrichment (c-Abl (mouse)) | phosphorylation enrichment (c-Src) | SH2 binding enrichment (Grb2 SH2) | SH2 binding enrichment (SHP2-C SH2) | SH2 binding enrichment (c-Src SH2)
1 | IPTPAYQSLPA [PDCD6IP_Y727_S730L] | 0.652 | 0.506 | 0.501 | 0.497 | 0.711 | 0.341 | 0.624 | 0.467 | 0.941 | 0.616 | 0.898 | 0.546 | 0.416 | 0.707 | 0.876 | 1.18
2 | IPTPAYQSSPA [PDCD6IP_Y727] | 0.489 | 0.452 | 0.364 | 0.377 | 0.422 | 0.373 | 0.674 | 0.406 | 0.38 | 0.541 | 0.356 | 0.504 | 0.369 | 0.767 | 0.566 | 0.567
3 | IQSAKYDMAED [TTC21B_Y1213] | 1.21 | 0.572 | 0.724 | 0.611 | 0.793 | 0.503 | 1.21 | 0.59 | 0.687 | 1.2 | 0.484 | 0.825 | 0.513 | 0.823 | 0.679 | 1.3
4 | IRRQGYSHRIL [MYO3B_Y993] | 0.733 | 0.4 | 0.568 | 0.374 | 0.469 | 0.43 | 0.656 | 0.465 | 0.419 | 0.475 | 0.464 | 0.469 | 0.42 | 0.762 | 0.526 | 0.542
5 | IRTIDYRFTVS [IDS_Y497_W502S_YF] | 0.907 | 0.496 | 0.547 | 0.483 | 0.683 | 0.596 | 1.05 | 0.424 | 0.444 | 0.989 | 0.441 | 0.989 | 0.458 | 1.18 | 1.18 | 0.813
6 | ISNATYKEIGL [FLT1_Y199] | 0.462 | 0.352 | 0.498 | 0.446 | 0.438 | 0.471 | 0.605 | 0.447 | 0.485 | 0.442 | 0.304 | 0.467 | 0.366 | 0.823 | 0.587 | 1.04
7 | ISNATYKQIGL [FLT1_Y199_E201Q] | 0.667 | 0.421 | 0.342 | 0.378 | 0.399 | 0.362 | 0.582 | 0.434 | 0.349 | 0.513 | 0.419 | 0.566 | 0.399 | 0.863 | 0.78 | 0.481
8 | ISRVLYPNDNF [PYGM_Y281] | 0.649 | 0.438 | 0.524 | 0.448 | 0.472 | 0.422 | 0.748 | 0.759 | 0.395 | 0.675 | 0.37 | 0.602 | 0.477 | 0.743 | 0.626 | 0.446
9 | ITQRAYRRHLL [SCN1A_Y1926_I1922T] | 0.63 | 0.427 | 0.417 | 0.442 | 0.48 | 0.403 | 0.557 | 0.444 | 0.457 | 0.573 | 0.585 | 0.547 | 0.622 | 0.69 | 0.585 | 0.404
10 | IVKAFYVHARA [AIPL1_Y268_R270H_YF] | 1.04 | 0.492 | 0.621 | 0.479 | 0.825 | 0.559 | 1.18 | 0.585 | 0.488 | 0.955 | 0.601 | 0.718 | 0.41 | 1.36 | 1.53 | 0.781
11 | IWDLKYTIENP [SND1_Y178_R174W] | 1.01 | 0.593 | 0.498 | 0.497 | 0.82 | 0.496 | 1.16 | 0.353 | 0.433 | 1.02 | 0.426 | 1.07 | 0.688 | 1.06 | 0.755 | 0.467
12 | IYETDYYRKGG [INSR_Y1189] | 1.05 | 0.645 | 0.673 | 0.479 | 0.771 | 1.54 | 0.885 | 1.14 | 1.28 | 0.942 | 3.92 | 0.626 | 1.16 | 0.863 | 0.621 | 0.59
13 | IYHLSYLHNCE [PDE6B_Y227] | 1.46 | 0.778 | 0.764 | 1.95 | 1.74 | 1.28 | 1.54 | 2.63 | 1.75 | 1.26 | 3.92 | 3.41 | 2.56 | 0.959 | 1 | 0.792
14 | KAIMIYVSSFF [ACTN4_Y260_T259I_YF] | 0.945 | 0.457 | 0.606 | 0.446 | 0.666 | 0.444 | 1.06 | 0.422 | 0.429 | 0.925 | 0.457 | 0.684 | 0.534 | 0.948 | 0.967 | 0.567
15 | KAIMTYVSSFF [ACTN4_Y260_YF] | 0.911 | 0.57 | 0.602 | 0.533 | 0.647 | 0.437 | 0.821 | 0.559 | 0.531 | 0.561 | 0.494 | 0.527 | 0.592 | 0.962 | 0.878 | 0.677
16 | KALSLYTKLMN [STAM_Y371_E366K] | 1.36 | 0.673 | 0.774 | 0.555 | 0.872 | 0.588 | 1.32 | 0.46 | 0.537 | 1.14 | 0.446 | 0.605 | 0.393 | 1.12 | 3.1 | 2.23
17 | KAVLHYKHQNQ [MTOR_Y1804_E1799K] | 0.6 | 0.423 | 0.328 | 0.427 | 0.629 | 0.469 | 0.863 | 0.36 | 0.449 | 0.622 | 0.366 | 0.891 | 0.366 | 1.12 | 0.734 | 0.861
18 | KDHPDYKFQLR [SOX10_Y171_P175L_YF] | 0.798 | 0.49 | 0.492 | 0.478 | 0.633 | 0.65 | 0.824 | 0.409 | 0.406 | 0.698 | 0.454 | 0.512 | 0.512 | 0.772 | 0.691 | 0.649
19 | KDPPDYKYQPR [SOX9_Y172_H169P] | 0.837 | 0.489 | 0.518 | 0.461 | 0.479 | 0.421 | 0.788 | 0.51 | 0.353 | 0.663 | 0.375 | 0.747 | 0.538 | 1.02 | 1.02 | 0.503
20 | KGEDFYSVTCH [FHL1_Y149_C150S] | 1.47 | 0.806 | 0.632 | 0.849 | 0.942 | 3.47 | 1.35 | 5.87 | 3.19 | 1.13 | 4.71 | 0.899 | 3.96 | 0.688 | 0.706 | 0.47
21 | KGEDFYYVTCH [FHL1_Y149_C150Y] | 1.35 | 0.802 | 0.729 | 1.35 | 1.69 | 0.71 | 1.43 | 0.692 | 0.724 | 1.43 | 1.32 | 1.11 | 0.774 | 0.636 | 0.565 | 0.412
22 | KGEPQYSSHSS [SIPA1L3_Y1265] | 0.515 | 0.327 | 0.317 | 0.298 | 0.421 | 0.45 | 0.547 | 0.554 | 0.295 | 0.57 | 0.429 | 0.498 | 0.496 | 0.853 | 0.408 | 0.411
23 | KGIDRYNPENL [EIF3K_Y21] | 0.583 | 0.349 | 0.446 | 0.493 | 0.564 | 0.372 | 0.736 | 0.42 | 0.384 | 0.449 | 0.414 | 0.456 | 0.358 | 0.861 | 0.785 | 0.524
24 | KGSEGYLAATY [NF1_Y2503] | 0.654 | 0.372 | 0.365 | 0.377 | 0.494 | 0.457 | 0.723 | 0.46 | 0.46 | 0.627 | 0.355 | 0.471 | 0.484 | 0.719 | 0.614 | 0.473
25 | KHMADYPDFKF [SOX11_Y113_YF] | 0.745 | 0.503 | 0.496 | 0.62 | 0.701 | 0.434 | 0.84 | 0.502 | 0.391 | 0.669 | 0.398 | 0.591 | 0.386 | 0.733 | 0.719 | 0.387
26 | KIKGRYEKCEP [KRT26_Y119_W118R] | 0.808 | 0.614 | 0.526 | 0.562 | 1.17 | 0.584 | 1.13 | 0.412 | 0.546 | 1.37 | 0.478 | 1.25 | 0.579 | 1.67 | 1.9 | 1.81
27 | KIMVIYDGACQ [VWDE_Y1035_T1032M] | 1.35 | 1.3 | 1.11 | 0.687 | 1.07 | 0.897 | 1.69 | 0.885 | 1.49 | 1.83 | 0.519 | 0.965 | 0.796 | 0.776 | 0.597 | 0.455
28 | KIVFVYVKKRS [DNAI2_Y7_E2K_YF] | 1.06 | 0.439 | 0.48 | 0.466 | 0.731 | 0.478 | 0.966 | 0.425 | 0.449 | 0.925 | 0.354 | 0.576 | 0.428 | 1.27 | 1.13 | 0.856
29 | KKHIPYREHKS [CSNK1G1_Y205] | 1.76 | 1.84 | 1.25 | 1.31 | 3.18 | 1.81 | 2.94 | 0.888 | 1.19 | 3.87 | 1.03 | 3.25 | 1.46 | 1.99 | 2.1 | 1.88
